Earlier results, collected in article PMC7140434.

Target: emerin (Homo sapiens) (UniProt P50402)
UniProt P50402, sequence (P50402 whole entry): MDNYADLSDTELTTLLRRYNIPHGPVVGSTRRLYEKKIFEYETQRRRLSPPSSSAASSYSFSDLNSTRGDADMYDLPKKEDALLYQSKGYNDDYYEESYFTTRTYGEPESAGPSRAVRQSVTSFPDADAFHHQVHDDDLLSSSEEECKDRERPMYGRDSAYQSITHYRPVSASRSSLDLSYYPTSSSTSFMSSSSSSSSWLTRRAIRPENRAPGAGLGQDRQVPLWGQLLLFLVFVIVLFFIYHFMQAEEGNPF

Substance: HDAC3 (from UniProt O15379)
- Kd: 7.3 µM
